# In IntAct's records for PubMed 7536190:
# B1: Tumor necrosis factor receptor superfamily member 6 (Mus musculus), P25446 (parent)
# chain: MLWIWAVLPLVLAGSQLRVHTQGTNSISESLKLRRRVRETDKNCSEGLYQGGPFCCQPCQPGKKKVEDCKMNGGTPTCAPCTEGKEYMDKNHYADKCRRCTLCDEEHGLEVETNCTLTQNTKCKCKPDFYCDSPGCEHCVRCASCEHGTLEPCTATSNTNCRKQSPRNRLWLLTILVLLIPLVFIYRKYRKRKCWKRRQDDPESRTSSRETIPMNASNLSLSKYIPRIAEDMTIQEAKKFARENNIKEGKIDEIMHDSIQDTAEQKVQLLLCWYQSHGKSDAYQDLIKGLKKAECRRTLDKFQDMVQKDLGKSTPDTGNENEGQCLE
# Variants of: B1
# Settings: with fadd_human FADD
row,Variant,effect of a mutation on the interaction
1,MLWIWAVLPLVLAGSQLRVHTQGTNSISESLKLRRRVRETDKNCSEGLYQGGPFCCQPCQPGKKKVEDCKMNGGTPTCAPCTEGKEYMDKNHYADKCRRCTLCDEEHGLEVETNCTLTQNTKCKCKPDFYCDSPGCEHCVRCASCEHGTLEPCTATSNTNCRKQSPRNRLWLLTILVLLIPLVFIYRKYRKRKCWKRRQDDPESRTSSRETIPMNASNLSLSKYDPRIAEDMTIQEAKKFARENNIKEGKIDEIMHDSIQDTAEQKVQLLLCWYQSHGKSDAYQDLIKGLKKAECRRTLDKFQDMVQKDLGKSTPDTGNENEGQCLE [I225D],decreasing interaction

# Variants of: B1
# Settings: with tnr6_human FAS
row,Variant,effect of a mutation on the interaction
1,MLWIWAVLPLVLAGSQLRVHTQGTNSISESLKLRRRVRETDKNCSEGLYQGGPFCCQPCQPGKKKVEDCKMNGGTPTCAPCTEGKEYMDKNHYADKCRRCTLCDEEHGLEVETNCTLTQNTKCKCKPDFYCDSPGCEHCVRCASCEHGTLEPCTATSNTNCRKQSPRNRLWLLTILVLLIPLVFIYRKYRKRKCWKRRQDDPESRTSSRETIPMNASNLSLSKYDPRIAEDMTIQEAKKFARENNIKEGKIDEIMHDSIQDTAEQKVQLLLCWYQSHGKSDAYQDLIKGLKKAECRRTLDKFQDMVQKDLGKSTPDTGNENEGQCLE [I225D],decreasing interaction
